Source: US20190231872A1 (INDUSTRY ACADEMIC COOPERATION FOUNDATION HALLYM UNIVERSITY, published 2019)
Read-outs that look alike come from different tables or passages of the source. Each block holds one binder with its values, some of them ahead of it.

Tests used:
[1] = molecular target: T1, hTM4SF5EC2-C cyclic peptide (human, cyclic: disulfide bond between the cysteines that replace glycine 133 and valine 156 (3rd and 26th residue of the peptide); biotinylated for SPR); test: ELISA on coated hTM4SF5EC2-C, purified antibody titrated
T1 construct: Chemically synthesized (Peptron); also called cyclic TM4SF5 peptide; TM4SF5 cyclic peptide
T1 peptide: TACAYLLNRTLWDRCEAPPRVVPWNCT

[2] = molecular target: T1, hTM4SF5EC2-C cyclic peptide; test: SPR (Reichert SPR 7500DC), cyclic peptide hTM4SF5EC2-C on chip, antibody 0 to 3.75 nM, 1:1 binding with mass transfer
Experimental: (§1) The affinities of anti-hTM4SF5 monoclonal antibody (mEC2-C) and humanized anti-TM4SF5 antibody (hEC2-C-2) binding to hTM4SF5EC2-C cyclic peptide were measured at 25° C. using the Reichert SPR system. Biotinylated peptides were captured from each flowing cell surface of a streptoavidin-coated sensor chip. Biotin was used as a negative control. Anti-hTM4SF5 monoclonal antibody (mEC2-C) and humanized anti-TM4SF5 antibody were injected at a flow rate of 30 ml/min. Data were evaluated using Reichert SPR evaluation software.

[3] = molecular target: T2, hTM4SF5R2-3 peptide (human); test: ELISA on coated hTM4SF5R2-3, purified antibody titrated
T2 peptide: NRTLWDRCEAPPRV

[4] = molecular target: T1, hTM4SF5EC2-C cyclic peptide; test: SPR, Kd of hEC2-C-2 against Kd of mEC2-C
Experimental: as §1

[5] = molecular target: T1, hTM4SF5EC2-C cyclic peptide; test: SPR (Reichert SPR 7500DC), biotinylated peptide on streptavidin chip, antibody injected, 25 C
Experimental: as §1

[6] = molecular target: T2, hTM4SF5R2-3 peptide; test: ELISA on coated hTM4SF5R2-3, purified antibody titrated
[7] = molecular target: T1, hTM4SF5EC2-C cyclic peptide; test: ELISA on coated hTM4SF5EC2-C, purified antibody titrated
[8] = molecular target: T1, hTM4SF5EC2-C cyclic peptide; test: SPR (Reichert SPR 7500DC), biotinylated cyclic peptide on streptavidin chip, antibody 0 to 80 nM, 1:1 binding with mass transfer
Experimental: FIG. 6 represents purification and characterization of mouse anti-TM4SF5 monoclonal antibodies recognizing TM4SF5 cyclic peptides. (A) Hydrops abdominis was producted from BALB/c mice by injecting i.p. into the abdominal cavity with hybridoma clone (2A10 clone) derived from FIG. 5. Anti-TM4SF5 monoclonal antibody was purified using protein-A agarose column chromatography and the purified antibody was identified by SDS-PAGE and Coomassie blue staining. (B) The isotype was determined by obtaining titration curves using purified monoclonal antibodies. (C) A binding affinity of monoclonal antibody for cyclic peptide hTM4SF5EC2-C was determined by using ELISA. (D) A binding affinity of monoclonal antibody for cyclic peptide […] was determined by using Reichert Analytical Instruments SPR 7500DC (Reichert). Biotinylated peptides were immobilized on streptavidin chip and the amount of antibody was increased. Kinetic parameters of binding reactions are expressed under sensorgrams.
as §1, with “Anti-hTM4SF5 monoclonal antibody (mEC2-C) and humanized anti-TM4SF5 antibody were injected at a flow rate of 30 ml/min.” left out

[9] = molecular target: T3, Myc-tagged recombinant human TM4SF5 protein (human, UniProt O14894 1-197); test: Western blot of HEK 293F-EV and HEK 293F-TM4SF5 lysates with hybridoma culture supernatant
T3 construct: whole, on cells; tested in cell lysates by Western blot and immunoprecipitation, not on whole cells; also called hTM4SF5; recombinant TM4SF5 protein; not shown: C-terminal Myc-His tag of the vector pcDNA-3.1/Myc-His(-)B
T3 sequence (looked up): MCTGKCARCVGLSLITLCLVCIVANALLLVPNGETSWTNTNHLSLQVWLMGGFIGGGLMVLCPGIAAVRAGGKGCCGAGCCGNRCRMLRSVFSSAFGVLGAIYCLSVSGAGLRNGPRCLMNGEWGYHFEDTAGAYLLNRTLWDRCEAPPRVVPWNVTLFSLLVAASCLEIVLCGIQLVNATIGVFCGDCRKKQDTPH

EC50 (read off the curve) [1]: ~0.1 nM
Kd [2]: 0.0227 nM
koff [2]: 1e-05 s⁻¹
kon [2]: 440000 M⁻¹ s⁻¹
binding result [3]: no binding (tested: 1e-6 M)
fold lower Kd than the original mouse monoclonal antibody mEC2-C [4]: ~20 fold
Kd [5]: ~0.0227 nM
B1: humanized anti-TM4SF5 antibody hEC2-C-2 (antibody, V domains shown)
VH: EVQLVESGGGLVQPGGSLRLSCAASGFSLTSYGVTWVRQAPGKGLEWLGVIWSDGSTNYQSALISRLTISRDNSKNTAYLQMNSLRAEDTAVYYCARPSNYYYFDYWGQGTLVTVSS
VL: DIQMTQSPSSLSASVGDRVTITCKSSQSLFDRRTRKTYLAWYQQKPGKAPKLLISWASTRESGVPSRFSGSGSGTDFTLTISSLQPEDFATYYCKQSYNLFTFGQGTKVEIK
notes: hEC2-C-2 is the clone that was expressed and tested; also called hEC2-C-2 Ab; hEC2-C-2 IgG

binding result [6]: no binding (tested: 1e-6 M)
EC50 (read off the curve) [7]: ~3 nM
Kd [8]: 0.488 nM
kon [8]: 20500 M⁻¹ s⁻¹
binding result [9]: binds
Kd [5]: ≤ 0.48 nM
koff [5]: ≤ 1e-05 s⁻¹
B2: anti-TM4SF5 monoclonal antibody mEC2-C (antibody, V domains shown)
VH: QVQLEESGPGLVAPSQSLSIICTVSGFSLTSYGVTWVRQPPGKGLEWLGVIWSDGSTNYQSALISRLTISRDNSKSQAFLKLNSLQTDDTATYYCARPSNYYYFDYWGQGTTLTVSS
VL: DIVMTQSPSSLAVSAGERVTLSCKSSQSLFDRRTRKTYLAWYQQKPGQSPKLLISWASTRESGVPDRFTGSGSGTDFTLTISSVQAEDLAVYYCKQSYNLFTFGGGTKLEIK
notes: also called mouse anti-TM4SF5 monoclonal antibody; anti-hTM4SF5 monoclonal antibody
